T1: cynomolgus CX3CR1 (cynomolgus, UniProt P49238 1-355 (human entry))
T1 construct: transiently expressed on HEK293T cells; also called cyCX3CR1; cyno CX3CR1
T1 chain: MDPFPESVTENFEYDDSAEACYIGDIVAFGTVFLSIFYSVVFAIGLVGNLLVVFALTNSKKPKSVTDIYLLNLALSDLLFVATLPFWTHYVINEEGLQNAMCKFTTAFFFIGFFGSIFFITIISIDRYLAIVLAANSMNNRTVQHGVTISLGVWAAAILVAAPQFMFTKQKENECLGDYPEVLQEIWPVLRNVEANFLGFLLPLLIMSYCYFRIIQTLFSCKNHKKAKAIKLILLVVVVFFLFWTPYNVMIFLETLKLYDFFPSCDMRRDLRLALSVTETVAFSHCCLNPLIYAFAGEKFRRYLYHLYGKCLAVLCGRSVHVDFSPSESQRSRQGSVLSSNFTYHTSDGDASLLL

T2: human CX3CR1 (human, UniProt P49238 1-355)
T2 construct: overexpressed on CHO, BA/F3 or HEK293T cells; also called huCX3CR1; hCX3CR1
T2 sequence: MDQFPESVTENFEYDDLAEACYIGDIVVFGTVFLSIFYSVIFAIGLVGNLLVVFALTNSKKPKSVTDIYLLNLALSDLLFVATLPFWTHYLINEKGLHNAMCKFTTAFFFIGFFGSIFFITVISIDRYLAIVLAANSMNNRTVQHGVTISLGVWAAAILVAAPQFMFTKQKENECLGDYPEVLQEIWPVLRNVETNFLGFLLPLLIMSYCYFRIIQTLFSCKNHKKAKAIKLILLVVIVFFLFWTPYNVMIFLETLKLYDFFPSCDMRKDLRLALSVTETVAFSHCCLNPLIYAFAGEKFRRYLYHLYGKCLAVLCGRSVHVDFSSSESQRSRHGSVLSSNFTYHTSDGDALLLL


Columns and labels:
cynomolgus CX3CR1 [1] = biological target: T1, cynomolgus CX3CR1; test: A647-fractalkine competition FACS, HEK293T cynomolgus CX3CR1
Source text: (§1) Periplasmic extracts were screened in a human CX3CR1/human Fractalkine FACS competition assay to assess the blocking capacity of the expressed VHHs. Human CX3CR1 was presented on CHO cells overexpressing CX3CR1. Both a setup using cells harvested from an actively growing culture and a setup using frozen cells was used. As a detection reagent labeled fractalkine was used (R&D Systems, Minneapolis, Minn., USA) labeled with alexa647 (A647-Fractalkine) at a degree of labeling of 1. To setup the assay, first a titration series of the labeled fractalkine was performed on the CHO-huCX3CR1 cells in order to determine the EC50 value for binding. Initially screening was performed at a higher concentration of fractalkine (3 nM) to increase the assay robustness. To increase the sensitivity of the screening to a maximum, the EC30 concentration (1 nM) was chosen for subsequent screening. In brief 50 μl of periplasmic extract was added to 6 nM labeled fractalkine (50 μ;) and 200 000 CHO-huCX3CR1 cells. After one hour incubation at 4 C, cells were washed three times before read out was performed on a FACS Array (Becton Dickinson). First a gate was set on the intact cells as determined from the scatter profile. Next, dead cells were gated out by their fluorescence profile from the PI stain (Sigma, St Louis, US). The fluorescence profile from the alexa647 label was determined for each sample and used for calculation of blocking capacity. As controls, conditions were taken along where there was no VHH present in the peri extract or a known irrelevant VHH and samples were included where excess cold fractalkine was included. For each sample the percentage block was determined using the control samples to determine the assay window.
(§2) For later identified VHHs, a human Fractalkine competition FACS was set up using human or cynomolgus CX3CR1 expressed in HEK293T cells. Both the human and the cynomolgus receptor was transiently transfected in HEK293T cells and transfections were matched by the binding of the labeled ligand, human fractalkine. The competition was evaluated using the EC30 concentration of fractalkine and as such obtained IC50 values are a good estimate of the Ki value, a measure for affinity (Table 22). The experiment was performed as described in Example 4.

cynomolgus CX3CR1 [2] = biological target: T1, cynomolgus CX3CR1; test: FACS binding, cynomolgus against human CX3CR1
Method: (§3) Initially, a FACS based binding setup was used to evaluate the cynomolgus cross reactivity. For this, the VHHs were incubated with the respective cells for 30 minutes at 4° C. followed by three wash steps and subsequently incubated with the detection reagents. As detection, a mouse anti-cmyc antibody (Serotec, MCA2200) followed by a goat anti-mouse antibody coupled to PE (Jackson 115-116-071) was used, each incubation for 30 minutes at 4° C., followed by three wash steps.

human CX3CR1 [3] = biological target: T2, human CX3CR1; test: A647-fractalkine competition FACS, HEK293T human CX3CR1
Source text: as §1, §2

human CX3CR1 [4] = biological target: T2, human CX3CR1; test: A647-fractalkine competition FACS, HEK293-huCX3CR1
Source text: as §1
(§4) The blocking capacity towards the ligand fractalkine of the VHHs was evaluated in a human CX3CR1 competition FACS as outlined in Example 4. Either CHO-huCX3CR1 cells, BA/F3-huCX3CR1 cells or transiently transfected HEK293T cells were used. The amount of labeled ligand used in the different competition setups was also varied. The IC₅₀ values for VHHs blocking the interaction of human fractalkine to human CX3CR1 are depicted in Table 19.

human CX3CR1 [5] = biological target: T2, human CX3CR1; test: cell-based or functional assay
human CX3CR1 [6] = biological target: T2, human CX3CR1; test: A647-fractalkine competition FACS, CHO-huCX3CR1
Source text: as §1, §4

human CX3CR1 [7] = biological target: T2, human CX3CR1; test: periplasmic extract, A647-fractalkine competition FACS, CHO-huCX3CR1
Summary of the method: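 Periplasmic VHH extracts competed with Alexa647-fractalkine (EC30, 1 nM; 3 nM initially) for binding to live or frozen CHO cells overexpressing human CX3CR1, 1 h at 4 C. FACS read on intact, PI-negative cells; percent block derived using no-VHH, irrelevant-VHH and excess cold fractalkine controls.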

cynomolgus CX3CR1 [8] = biological target: T1, cynomolgus CX3CR1; test: A647-fractalkine competition FACS, cynomolgus against human CX3CR1
Source text: as §1, §2

human CX3CR1 [9] = biological target: T2, human CX3CR1; test: FACS binding on human CX3CR1 cells, anti-c-myc detection
Method: as §3

cynomolgus CX3CR1 [10] = biological target: T1, cynomolgus CX3CR1; test: FACS binding on cynomolgus CX3CR1 cells, anti-c-myc detection
Method: as §3

human CX3CR1 [11] = biological target: T2, human CX3CR1; test: A647-fractalkine competition FACS, BA/F3-huCX3CR1
Source text: as §1, §4

human CX3CR1 [12] = biological target: T2, human CX3CR1; test: competition FACS, BA/F3-huCX3CR1; competitor alexa647-labeled 66B02
Source text: A competitive binding experiment was setup in order to determine whether the VHHs bind overlapping epitopes on CX3CR1. For this, the VHH 66B02 labeled with alexa647 was used in a competition FACS on the BA/F3 cells expressing huCX3CR1. Representative VHHs from the three functional families were used as competitors for the binding of the labeled 66B02.

Row | Binder | % block (cynomolgus CX3CR1 [1]) [%] | IC50 (cynomolgus CX3CR1 [1]) [µM] | ratio (cynomolgus/human EC50) (cynomolgus CX3CR1 [2]) | % block (human CX3CR1 [3]) [%] | IC50 (human CX3CR1 [3]) [µM] | % block (human CX3CR1 [4]) [%] | IC50 (human CX3CR1 [4]) [µM] | % block, fractalkine induced chemotaxis (human CX3CR1 [5]) [%] | IC50, fractalkine induced chemotaxis (human CX3CR1 [5]) [µM] | % block (human CX3CR1 [6]) [%] | IC50 (human CX3CR1 [6]) [µM] | % block (human CX3CR1 [7]) [%] | ratio (cynomolgus/human IC50) (cynomolgus CX3CR1 [8]) | EC50 (human CX3CR1 [9]) [µM] | EC50 (cynomolgus CX3CR1 [10]) [µM] | % block (human CX3CR1 [11]) [%] | IC50 (human CX3CR1 [11]) [µM] | % block (human CX3CR1 [12]) [%] | IC50 (human CX3CR1 [12]) [µM]
1 | CX3CR1BIIPMP54A7 (VHH, also called 54A07; not shown: C-terminal c-myc and His6 tags) VHH: EVQLVESGGGSVQAGESLRLSCAASGTIFSSNAMAWYRQAPGKQRDLVAGINSVDITKYADSVKGRFTISRDNAKNTVYLQMNSLKPEDTAVYYCTSDPRRGWNTRYWGQGTQVTVSS | 69 | 0.28 | 0.1 | 52 | 0.023 | 52 | 0.023 | 45 | 0.05 | 78 | 0.011 | 68.9 | 12.3 | 0.54 | 0.03 | 81 | 0.015 | – | –
2 | CX3CR1BIIPMP54A12 (VHH, also called CX3CR1BII54A12; not shown: C-terminal c-myc and His6 tags) VHH: EVQLVESGGGSVQAGESLRLSCAASGSIFSSNAMAWYRQAPGKQRDLVAVINSVGITKYADSVKGRFTISGDNAKNTVYLQMNSLKPEDTAVYYCTSDARRGWDTRYWGQGTQVTVSS | 94 | 0.067 | 3.3 | 96 | 0.0068 | 96 | 0.0068 | 84 | 0.08 | 104 | 0.0021 | 93.8 | 9.85 | 0.035 | 0.11 | 100 | 0.004 | – | –
3 | CX3CR1BIIPMP18E6 (VHH, family 13; also called 18E06; CX3CR1BII18E06; not shown: C-terminal c-myc and His6 tags) VHH: KVQLVESGGGLVQPGGSLRLSCATSGTIFSNNAMGWYRQAPGKKRDLVASISSSGSTNYADSVKGRFTVSRDNDKNTGYLQMNSLKPEDTGVYYCTLDARRGWNTAYWGQGAQVTVSS | – | – | 9 | – | – | – | – | 17 | – | 33 | 0.0018 | 53.1 | – | 0.0015 | 0.014 | 71 | 0.0028 | 100 | 0.0023

From US20130224224A1 (Boehringer Ingelheim, published 2013)
